T1: human CD39 (full length, on cells) (human, UniProt P49961 1-510)
T1 construct: Recombinant on CHOK1-hCD39 cells or natural on SK-MEL-28, SK-MEL-5 and MOLP-8 cells; the cell line is named under assay; also called hCD39; ENTPD1
T1 sequence: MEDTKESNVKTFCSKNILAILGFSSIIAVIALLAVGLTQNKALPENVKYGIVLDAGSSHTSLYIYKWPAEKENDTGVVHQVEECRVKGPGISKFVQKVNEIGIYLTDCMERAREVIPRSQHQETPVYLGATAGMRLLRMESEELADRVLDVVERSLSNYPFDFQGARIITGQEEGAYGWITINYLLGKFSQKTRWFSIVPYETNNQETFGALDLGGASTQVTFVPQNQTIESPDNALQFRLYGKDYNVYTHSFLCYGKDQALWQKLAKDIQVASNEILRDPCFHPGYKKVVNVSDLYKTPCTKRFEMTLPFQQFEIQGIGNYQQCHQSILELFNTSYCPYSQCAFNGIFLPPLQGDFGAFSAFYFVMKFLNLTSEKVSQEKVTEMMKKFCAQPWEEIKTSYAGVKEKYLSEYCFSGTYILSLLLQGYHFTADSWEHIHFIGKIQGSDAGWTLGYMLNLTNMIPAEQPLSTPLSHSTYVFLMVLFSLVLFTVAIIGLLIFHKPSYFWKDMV


Biological target: T1, human CD39 (full length, on cells)
Experiment: FACS, MOLP-8 cells
Description: Similarly, human CD39 expressing cells SK-MEL-5, SK-MEL-28 or MOLP-8, were incubated with a gradient concentration of anti-CD39 antibodies for 30 minutes at 4° C. Cells were washed 3 times using FACS buffer and next incubated with fluorescence labelled secondary antibody (goat-anti-mouse IgG or goat anti-human IgG) for 30 minutes at 4° C. Cells were washed 3 times and then re-suspended in FACS buffer and analyzed by flow cytometry analysis on BD Celesta. Data plotted and analyzed using GraphPad Prism 8.02.
The binding affinity of the humanized antibodies for c23 was determined by FACS, using similar methods as described in Example 3.2. The c23 humanized antibody clones showing good binding affinity are listed in below Table 19 and Table 20, and also shown in FIGS. 7A, 7B and FIG. 8. EC₅₀ is the concentration of the indicated antibodies to reach 50% of the signal in this assay.

Binder | EC50 [nM] | binding result
hu23.H1L1 (antibody, V domains shown, humanized c23) VH: QVQLVQSGAEVKKPGASVKVSCKASGYNLKDTFLHWVRQAPGQRLEWMGRIDPANGNIKYDPKFQGRVTITRDTSASTAYMELSSLRSEDTAVYYCARSPYYYGSGYRIFDVWGQGTTVTVSS VL: EIVLTQSPATLSLSPGERATLSCSAFSSVNYMHWYQQKPGQAPRLLIYTTSNLASGIPARFSGSGSGTDFTLTISSLEPEDFAVYYCQQRSTYPFTFGQGTKLEIK | ~77.1 | 
hu23.H1L3 (antibody, V domains shown, humanized c23) VH: QVQLVQSGAEVKKPGASVKVSCKASGYNLKDTFLHWVRQAPGQRLEWMGRIDPANGNIKYDPKFQGRVTITRDTSASTAYMELSSLRSEDTAVYYCARSPYYYGSGYRIFDVWGQGTTVTVSS VL: EIVLTQSPATLSASPGERATLSCSAFSSVNYMHWYQQKPGQAPRLLIYTTSNLASGIPARFSGSGSGTDYTLTISSMEPEDFAVYYCQQRSTYPFTFGQGTKLEIK | 2.77 | 
hu23.H2L1 (antibody, V domains shown, humanized c23) VH: QVQLVQSGAEVKKPGASVKVSCKASGYNLKDTFLHWVRQAPGQGLEWMGRIDPANGNIKYDPKFQGRVTITADTSASTAYMELSSLRSEDTAVYYCANSPYYYGSGYRIFDVWGQGTTVTVSS VL: EIVLTQSPATLSLSPGERATLSCSAFSSVNYMHWYQQKPGQAPRLLIYTTSNLASGIPARFSGSGSGTDFTLTISSLEPEDFAVYYCQQRSTYPFTFGQGTKLEIK | 65.9 | 
hu23.H2L3 (antibody, V domains shown, humanized c23) VH: QVQLVQSGAEVKKPGASVKVSCKASGYNLKDTFLHWVRQAPGQGLEWMGRIDPANGNIKYDPKFQGRVTITADTSASTAYMELSSLRSEDTAVYYCANSPYYYGSGYRIFDVWGQGTTVTVSS VL: EIVLTQSPATLSASPGERATLSCSAFSSVNYMHWYQQKPGQAPRLLIYTTSNLASGIPARFSGSGSGTDYTLTISSMEPEDFAVYYCQQRSTYPFTFGQGTKLEIK | 2.03 | 
hu23.H2L4 (antibody, V domains shown, humanized c23) VH: QVQLVQSGAEVKKPGASVKVSCKASGYNLKDTFLHWVRQAPGQGLEWMGRIDPANGNIKYDPKFQGRVTITADTSASTAYMELSSLRSEDTAVYYCANSPYYYGSGYRIFDVWGQGTTVTVSS VL: EIVLTQSPATLSASPGERVTISCSAFSSVNYMHWYQQKPGQAPRLLIYTTSNLASGIPARFSGSGSGTDYTLTISSMEPEDFAVYYCQQRSTYPFTFGQGTKLEIK | 1.46 | 
hu23.H3L2 (antibody, V domains shown, humanized c23) VH: QVQLVQSGAEVKKPGASVKLSCKASGYNLKDTFLHWVRQAPGQGLEWIGRIDPANGNIKYDPKFQGRATITADTSASTAYMELSSLRSEDTAVYYCANSPYYYGSGYRIFDVWGQGTTVTVSS VL: EIVLTQSPATLSLSPGERATLSCSAFSSVNYMHWYQQKPGQAPRLLIYTTSNLASGIPARFSGSGSGTDYTLTISSLEPEDFAVYYCQQRSTYPFTFGQGTKLEIK | 1.34 | 
hu23.H3L3 (antibody, V domains shown, humanized c23) VH: QVQLVQSGAEVKKPGASVKLSCKASGYNLKDTFLHWVRQAPGQGLEWIGRIDPANGNIKYDPKFQGRATITADTSASTAYMELSSLRSEDTAVYYCANSPYYYGSGYRIFDVWGQGTTVTVSS VL: EIVLTQSPATLSASPGERATLSCSAFSSVNYMHWYQQKPGQAPRLLIYTTSNLASGIPARFSGSGSGTDYTLTISSMEPEDFAVYYCQQRSTYPFTFGQGTKLEIK | 3.29 | 
hu23.H3L4 (antibody, V domains shown, humanized c23) VH: QVQLVQSGAEVKKPGASVKLSCKASGYNLKDTFLHWVRQAPGQGLEWIGRIDPANGNIKYDPKFQGRATITADTSASTAYMELSSLRSEDTAVYYCANSPYYYGSGYRIFDVWGQGTTVTVSS VL: EIVLTQSPATLSASPGERVTISCSAFSSVNYMHWYQQKPGQAPRLLIYTTSNLASGIPARFSGSGSGTDYTLTISSMEPEDFAVYYCQQRSTYPFTFGQGTKLEIK | 1.61 | 
hu23.H4L1 (antibody, V domains shown, humanized c23) VH: QVQLVQSGAEVKKPGASVKLSCKASGYNLKDTFLHWVKQAPGQGLEWIGRIDPANGNIKYDPKFQGRATLTADTSASTAYLELSSLRSEDTAVYYCANSPYYYGSGYRIFDVWGQGTTVTVSS VL: EIVLTQSPATLSLSPGERATLSCSAFSSVNYMHWYQQKPGQAPRLLIYTTSNLASGIPARFSGSGSGTDFTLTISSLEPEDFAVYYCQQRSTYPFTFGQGTKLEIK |  | no binding
hu23.H4L2 (antibody, V domains shown, humanized c23) VH: QVQLVQSGAEVKKPGASVKLSCKASGYNLKDTFLHWVKQAPGQGLEWIGRIDPANGNIKYDPKFQGRATLTADTSASTAYLELSSLRSEDTAVYYCANSPYYYGSGYRIFDVWGQGTTVTVSS VL: EIVLTQSPATLSLSPGERATLSCSAFSSVNYMHWYQQKPGQAPRLLIYTTSNLASGIPARFSGSGSGTDYTLTISSLEPEDFAVYYCQQRSTYPFTFGQGTKLEIK | 1.15 | 
hu23.H4L3 (antibody, V domains shown, humanized c23) VH: QVQLVQSGAEVKKPGASVKLSCKASGYNLKDTFLHWVKQAPGQGLEWIGRIDPANGNIKYDPKFQGRATLTADTSASTAYLELSSLRSEDTAVYYCANSPYYYGSGYRIFDVWGQGTTVTVSS VL: EIVLTQSPATLSASPGERATLSCSAFSSVNYMHWYQQKPGQAPRLLIYTTSNLASGIPARFSGSGSGTDYTLTISSMEPEDFAVYYCQQRSTYPFTFGQGTKLEIK | 1.87 | 
hu23.H5L1 (antibody, V domains shown, humanized c23) VH: QVQLVQSGAEVKKPGASVKVSCKASGYNLKDTFLHWVRQAPGQGLEWMGRIDPANGNIKYDPKFQGRVTITADTSANTAYMELISLRSEDTAVYYCANSPYYYGSGYRIFDVWGQGTTVTVSS VL: EIVLTQSPATLSLSPGERATLSCSAFSSVNYMHWYQQKPGQAPRLLIYTTSNLASGIPARFSGSGSGTDFTLTISSLEPEDFAVYYCQQRSTYPFTFGQGTKLEIK | 0.262 | 
hu23.H5L7 (antibody, V domains shown, humanized c23) VH: QVQLVQSGAEVKKPGASVKVSCKASGYNLKDTFLHWVRQAPGQGLEWMGRIDPANGNIKYDPKFQGRVTITADTSANTAYMELISLRSEDTAVYYCANSPYYYGSGYRIFDVWGQGTTVTVSS VL: QIVLTQSPATLSASPGERVTITCSAFSSVNYMHWYQQKPGQAPKLLIYTTSNLASGVPTRFSGSGSGTSYTLTISSMEPEDFAVYYCQQRSTYPFTFGQGTKLEIK | 0.179 | 
hu23.H6L1 (antibody, V domains shown, humanized c23) VH: EVQLVQSGAEVKKPGASVKLSCKASGYNLKDTFLHWVRQAPGQGLEWIGRIDPANGNIKYDPKFQGRATITADTSANTAYMELISLRSEDTAVYYCANSPYYYGSGYRIFDVWGQGTTVTVSS VL: EIVLTQSPATLSLSPGERATLSCSAFSSVNYMHWYQQKPGQAPRLLIYTTSNLASGIPARFSGSGSGTDFTLTISSLEPEDFAVYYCQQRSTYPFTFGQGTKLEIK | 0.246 | 
hu23.H6L5 (antibody, V domains shown, humanized c23) VH: EVQLVQSGAEVKKPGASVKLSCKASGYNLKDTFLHWVRQAPGQGLEWIGRIDPANGNIKYDPKFQGRATITADTSANTAYMELISLRSEDTAVYYCANSPYYYGSGYRIFDVWGQGTTVTVSS VL: QIVLTQSPATLSLSPGERATLSCSAFSSVNYMHWYQQKPGQAPRLLIYTTSNLASGIPTRFSGSGSGTSYTLTISSLEPEDFAVYYCQQRSTYPFTFGQGTKLEIK | 0.593 | 
hu23.H6L6 (antibody, V domains shown, humanized c23) VH: EVQLVQSGAEVKKPGASVKLSCKASGYNLKDTFLHWVRQAPGQGLEWIGRIDPANGNIKYDPKFQGRATITADTSANTAYMELISLRSEDTAVYYCANSPYYYGSGYRIFDVWGQGTTVTVSS VL: QIVLTQSPATLSASPGERATLSCSAFSSVNYMHWYQQKPGQAPKLLIYTTSNLASGVPTRFSGSGSGTSYTLTISSMEPEDFAVYYCQQRSTYPFTFGQGTKLEIK | 0.237 | 
hu23.H6L7 (antibody, V domains shown, humanized c23) VH: EVQLVQSGAEVKKPGASVKLSCKASGYNLKDTFLHWVRQAPGQGLEWIGRIDPANGNIKYDPKFQGRATITADTSANTAYMELISLRSEDTAVYYCANSPYYYGSGYRIFDVWGQGTTVTVSS VL: QIVLTQSPATLSASPGERVTITCSAFSSVNYMHWYQQKPGQAPKLLIYTTSNLASGVPTRFSGSGSGTSYTLTISSMEPEDFAVYYCQQRSTYPFTFGQGTKLEIK | 0.122 | 
hu23.H7L7 (antibody, V domains shown, humanized c23) VH: EVQLVQSGAEVKKPGASVKLSCKASGYNLKDTFLHWVKQAPGQGLEWIGRIDPANGNIKYDPKFQGKATLTADTSANTAYLELISLRSEDTAVYYCANSPYYYGSGYRIFDVWGQGTTVTVSS VL: QIVLTQSPATLSASPGERVTITCSAFSSVNYMHWYQQKPGQAPKLLIYTTSNLASGVPTRFSGSGSGTSYTLTISSMEPEDFAVYYCQQRSTYPFTFGQGTKLEIK | 0.25 | 

— patent publication US20210388105A1 (ELPISCIENCE SUZHOU BIOPHARMA, published 2021)
